Data: the RNAGym collection of RNA variant scans (doi:10.7554/elife.80360)

B1: Hairpin Ribozyme (parent)
chain: GUCCUCUUUCACGUGCGCGUGAAAGAGAGAAGUGAACCAGAGAAACACACGUUGUGGUAUAUUACCUGGUA

Variants of: B1
Test: self-cleavage, relative activity (ratio to wild type); higher = more cleavage; co-transcriptional

Variant	self-cleavage
A61G A64C	0.109
U60G G69A	0.0995
U60G G69C	0.317
U60A C65U	0.301
U60A C65G	0.254
U62G G68C	0.186
U63G U67A	0.159
A64U C65G	0.188
U67A G69U	0.321
U67G G68A	0.138
G57U U62A	0.0927
U63G A64U	0.157
U63G A64C	0.191
U58G A71G	0.935
U58G A71U	0.455
U58G A71C	1.07
U60G C66G	0.261
A64G G68U	0.19
A64G G68C	0.122
A64C G68C	0.273
G68A G69A	0.103
G68A G69C	0.19
A59C U63A	0.169
A61U U67G	0.129

Variant	self-cleavage
A61U U67A	0.178
A61U U67C	0.175
G56U U63C	0.169
A71C	1.42
A71G	1.04
A71U	0.796
A61C G68A	0.116
A61C G68U	0.278
U63A G69A	0.153
U58A C65A	0.503
U58A C65U	0.203
U60G G68C	0.127
U58G G69A	0.292
U58G G69C	0.142
G57A	0.183
G57U	0.273
G57C	0.166
U67C G68C	0.178
A61U A71U	0.171
A59U G68A	0.231
A59U G68U	0.188
U58A U62A	0.0926
G57C G68U	0.172
G57A A61U	0.143

Variant	self-cleavage
G57A A61G	0.169
G57A A61C	0.155
C66G U67C	0.219
G57U U58C	0.278
G57U U58G	0.0777
U60G A64C	0.186
U60G A64G	0.335
A59U U60A	0.195
U58G U70C	0.84
G57C U67G	0.123
G57C U67C	0.114
A61C U70C	0.169
U62C G69A	0.112
G57A A59G	0.171
G57A A59C	0.142
G57U A61G	0.296
U62A U67G	0.173
U58C A61G	0
A59C A71C	0.304
U58C U67G	0.241
U60C C65G	0.531
U60C C65U	0.909
U62G C65U	0.0799
G57A U63A	0.131

Variant	self-cleavage
G68A U70G	0.3
G68A U70C	0.336
A64G U70A	0.597
A64G U70G	0.47
G57C C65U	0.192
G68C G69A	0.152
G68C G69C	0.206
U62C U70G	0.126
A59U C66G	0.185
A59U C66A	0.128
G57U U67C	0.116
G57U U67A	0.166
A59U G69A	0.182
A59U G69U	0.191
A59U G69C	0.323
C66G U70G	0.2
C66G U70C	0.132
C66G U70A	0.273
U60C U62A	0.253
U60C U62C	0.569
A59G A71C	0.444
U58A G68C	0.194
A59G U62A	0.144
G68U U70A	0.269

Variant	self-cleavage
G68U U70C	0.201
G69C U70G	0.657
U62G C66G	0.0965
U60A A61C	0.133
U60A A61U	0.17
A64U U67G	0.13
A61G C66G	0.329
U70A A71U	1.63
U70A A71G	0.886
U58C U62A	0.24
U62A U70G	0.16
A61C G69C	0.0992
U62A G68U	0.28
G57U A64U	0.173
G57U A64G	0.202
G57U A64C	0.139
A64C C66A	0.0503
A64C C66G	0.084
A64C C66U	0.27
A59U U63C	0.12
A64C A71G	0.266
U58G A59G	0.143
G57C A59U	0.159
G57C A59G	0.244

Variant	self-cleavage
A59G G69C	0.161
C66G G69C	0.145
C66G G69U	0.0961
A61U U63A	0.123
A59C A61U	0.284
U60G A61U	0.259
C65A C66G	0.0953
U63A A64G	0.0955
A59C C66U	0.107
C66U U67A	0.162
U63A U70C	0.36
C65G A71G	0.187
C65G A71C	0.697
C65G A71U	0.219
U60A A64U	0.0988
U60A A64G	0.353
U60A A64C	0.206
U60C A61C	0.264
G69U U70A	0.346
A59G A64U	0.181
U58G	0.788
U58C	0.994
U58A	0.742
U60A G68A	0.298

Variant	self-cleavage
U60A C66A	0.365
U60A C66U	0.274
G69A U70A	0.434
U58C G68C	0.243
G68U G69C	0.136
U60A U62C	0.373
U60A U62G	0.0972
U60A U62A	0.0542
G57C A64U	0.095
U62C U63A	0.21
U62C U63C	0.168
U63G A71U	0.117
U58C U70C	0.945
U58A A59G	0.122
A59G G68C	0.144
U60A A71G	0.839
C66A U67C	0.159
C66U A71G	0.484
C66U A71U	0.417
U63G U70G	0.182
U63G U70C	0.161
C66U G68U	0.334
C66U G68A	0.0865
U58A A64G	0.247

Variant	self-cleavage
G57A U62G	0.273
G68A A71G	0.174
C65U U70G	0.148
C65U U70C	0.111
U58G U63C	0.271
A59C U67G	0.24
G57U U60C	0.246
G57U U60A	0.114
A64G G69U	0.116
U58A A71U	0.391
U58A A71C	1.19
A61C U63A	0.177
G57C U60A	0.14
G57C U60G	0.178
A64U G69A	0.115
A61G G68C	0.195
U63G G69C	0.138
U67G A71C	0.37
A59G C65A	0.155
A59G C65G	0.247
C66A G68A	0.126
U63A A71C	0.287
A59U U67G	0.143
C66G G68U	0.0439

Variant	self-cleavage
C66G G68C	0.0397
C66A U70C	0.305
C66A U70G	0.176
U58A U63G	0.194
U58A U63C	0.307
G57U A59C	0.188
G57U A59G	0.231
U63A C65G	0.173
A59C U70A	0.112
U58G A64U	0.218
U67G G69C	0.13
U67G G69U	0.165
U63G C66A	0.119
U63G C66U	0.109
A59G	0.17
A59C	0.171
A59U	0.157
A59C A64C	0.111
A59C A64G	0.1
U67A U70C	0.247
U62G A71C	0.281
U62G A71G	0.143
U60G U67G	0.202
U58A U60G	0.646

Variant	self-cleavage
U58A U60A	0.509
C66U U70C	0.506
C66U U70A	0.356
U58C G69A	0.421
U58C G69C	0.259
A59C G69C	0.216
G57C C66G	0.113
G57A A64G	0.131
G57A A64C	0.118
A59G U63C	0.134
U58C C65U	0.55
A64U A71U	0.305
C65A U70A	0.686
U62C C65U	0.162
U62C C65A	0.212
A59G C66U	0.0625
G57U U70G	0.225
C66A G69C	0.239
C66A G69U	0.156
A64C C65G	0.161
C65G U67G	0.0652
U62C A71U	0.277
U62C A71G	0.236
C65A A71C	1.07

Variant	self-cleavage
U58C U63C	0.178
U58C A59U	0.192
G68C	0.212
G68U	0.254
G68A	0.282
U60G U63C	0.171
A64C U67G	0.147
U58C C66G	0.154
U63C G69U	0.183
U63C G69C	0.28
G57C A61C	0.236
U67C A71G	0.132
U67C A71C	0.359
A59U C65A	0.19
G57U C65G	0.134
A61C C65G	0.189
U60C U63G	0.136
A64G C66G	0.226
G69C A71U	0.57
C65U U67A	0.309
U58A C66U	0.335
G68C U70G	0.576
U62G U67G	0.127
U62G U67C	0.133

Variant	self-cleavage
C65G U70C	0.189
C65G U70G	0.19
G57C U63A	0.165
A59C G68C	0.227
U63C U70G	0.248
A64U U70A	0.257
A61U C66G	0.233
U67G U70A	0.214
U67G U70G	0.125
U67G U70C	0.588
G56U U67C	0.111
G56U U67A	0.23
G56U U67G	0.12
A59U A64U	0.191
A64G	0.544
A64C	0.174
A64U	0.181
U62G U70A	0.163
C65U G68A	0.249
A61C A71G	0.286
G57A G69A	0.122
A61G U62G	0.128
U67C G69C	0.188
U63C C66A	0.23

Variant	self-cleavage
A61G U70G	0.156
U70G A71G	1.82
U60C U70C	1.28
U60C U70G	1.03
G56U U70A	0.145
G56U U70C	0.271
U62A C66U	0.143
A61G U67A	0.328
A64U C66G	0.069
A64U C66A	0.156
U63C A64C	0.224
G57C G69C	0.142
G57C G69A	0.135
A61U U70C	0.231
A61U U70G	0.261
A59C U60A	0.223
A59C U60G	0.274
U62A C65U	0.204
U62A C65A	0.165
U62C C66G	0.213
U62C C66U	0.189
U58G U60A	0.714
U58G U60G	0.731
A59C U62A	0.159

Variant	self-cleavage
U58G C66A	0.281
U58G C66U	0.403
C66A A71C	0.445
C66A A71U	0.184
U67G	0.28
U67C	0.227
U67A	0.229
U60G U62G	0.222
U60G U62C	0.244
G57U U63A	0.146
U58C A71G	1.31
U58C A71U	0.935
A61G C65G	0.303
A61G C65A	0.159
U60C G69U	0.0645
A64U G68C	0.213
A61C U62C	0.166
G57A U60A	0.152
G57A U70C	0.274
U60G	0.615
U60C	1.16
U60A	0.849
A64C U70G	0.127
G57U A71C	0.738
